B1: E3 ubiquitin-protein ligase Midline-1, residues 172 to 214; numbered along this chain, O15344 (parent)
chain: GLMCLEHEDEKVNMYCVTDDQLICALCKLVGRHRDHQVAALSE
B2: Steroid hormone receptor ERR2, residues 100 to 176; numbered along this chain, O95718 (parent)
chain: KRLCLVCGDIASGYHYGVASCEACKAFFKRTIQGNIEYSCPATNECEITKRRRKSCQACRFMKCLKVGMLKEGVRLD

Variants of: B1
Assay: abundance fitness (aPCA) (normalised: wild type 0, dead -1); higher = more abundant; growth selection in yeast, the domain comes from the species named
Conditions: Homo sapiens

Abundance fitness, by site and new letter:
L41: T 0.12, C 0.176, Q 0.136, S 0.134, K 0.161, P 0.297, F -0.132, N -0.034, G 0.051, I -0.082, W 0.001, M 0.069, A 0.072, H 0.172, V -0.053, Y -0.467
A40: W -0.406, R -0.019, G 0.046, Y -0.572, L -0.158, F 0.099, D 0.031, Q 0.082, V -0.236, H -0.141, K 0.108, I -0.789, S 0.065, M -0.151, T 0.035, P 0.228
E43: H -0.197, K 0.091, P -0.076, R -0.031, L -0.241, W -0.175, Q -0.317, G -0.045, D -0.239, V -0.534, A -0.004, T -0.221, S 0.058
A39: Y -0.393, W -0.424
S42: Y -0.34, T 0.064, Q -0.049, M -0.262, E 0.119, F -0.656, A -0.021, N 0.142, L -0.342, R -0.127, C 0.012, P 0.056, I -0.446, G 0.078, D 0.209, H 0.089

Variants of: B2
Assay: as above
Conditions: Homo sapiens

Abundance fitness: each site, then its substitutions
S12: A 0.031, N -0.019, E -0.02, M -0.118, D 0.022, G -0.023, C 0.155, T -0.138, R -0.026, W -0.253, Y -0.32, H 0.082, L -0.156, I -0.327, P -0.161, V 0.029, Q 0.115
G8: Y -0.132, Q 0.086, N -0.758, P -0.725, F -0.274, H -0.102, C -0.381, I -0.636, T -0.077, E 0.006, M -0.201, S -0.117, V -1.11, W -0.374, D -0.096, L -0.091, A -0.101
G13: M -0.539, W -0.64, C -0.947, Y -0.867, R -0.675, L -0.743, N -0.362, Q -0.244, K -0.336, S -0.555, V -0.38, I 0.038, F -0.27, H -0.759, T -0.509, D -0.02, A -0.751, P -0.393
L5: P -0.358, C -0.375, I -0.333, F -0.133, Y -0.186, R -0.197, W -0.332, T -0.031, M -0.139, H -0.351, Q -0.094, A -0.192, S -0.233, V -0.424, N -0.246, G -0.341, K -0.143
Y16: K -0.315, Q -0.366, T -0.418, H -0.378, G -0.08, V -0.115, C -0.213, P -0.355, N -0.093, I -0.342, E -0.06, S -0.276, M -0.239, D 0.008, L -0.332
H15: N -0.143, T -0.356, K -0.363, Q -0.097, F -0.197, L -0.223, P -0.32, M -0.325, G -0.068, C -0.435, D -0.211, W -0.1, V -0.369, I -0.115, Y -0.085, E -0.045
Y14: P -0.315, R -0.446, K 0.03, N -0.022, A 0.163, M -0.276, C 0.068, S -0.111, H -0.034, V 0.136, W 0.032, G -0.017, E 0.101, F 0.063, Q -0.145, I 0.03, L 0.04
L3: C -0.373, R -0.152, F 0.284, T -0.025, P -0.372, Q -0.055, H 0.133, G -0.118, M -0.1, W -0.446, N 0.179, V -0.036, Y 0.219, I 0.319, A -0.047, E -0.048, S -0.062
I10: M -0.065, Y -0.029, E 0.045, N -0.393, P 0.065, W 0.074, A 0.275, S -0.033, H -0.011, D 0.195, R -0.046, F 0.056, C -0.058, T 0.02, K 0.037, V 0.242, L -0.139
A11: D -0.241, M -0.103, I -0.377, S 0.067, Q -0.217, H -0.691, E -0.11, L -0.311, K -0.424, G -0.013, R -0.516, F -0.213, N -0.153, T -0.321, P -0.542, V -0.289, Y -0.128, C -0.177
V6: R -0.739, G -0.768, Q -0.781, T -0.51, A -0.497, C -0.684, K -0.211, S -0.713, Y -0.57, N -0.826, L -0.836, E -0.612, D -0.934, H -1.18, P -0.978, M -1.01, W -0.751
D9: N -0.365, P -0.894, L -0.454, V -0.43, C -0.829, M -0.216, G -0.208, F -0.492, R -0.508, I -0.369, W -0.301, Y -0.351, Q -0.143, S -0.36, H -0.365
C7: L -1.17, A -0.775, I -1.05, Q -0.918, D -0.602, H -1, F -0.362, E -0.874, R -0.586, S -0.726, W -1.22, N -0.635, V -0.976, Y -0.993, P -0.673, K -1.19, G -0.96
R2: S -0.187, D 0.125, F 0.16, C -0.111, A -0.226, T -0.263, Y 0.014, H 0.072, W -0.338, N 0.04, Q -0.367, V -0.228, K -0.066, G -0.176, M -0.074, E -0.105, L -0.136, P -0.502
K1: R -0.286, C -0.432, N 0.031, M 0.013, D -0.089, S -0.295, G -0.386, E -0.128, A -0.34, Q -0.346, W -0.387, H -0.525, F -0.641, V -0.334, T -0.177, I -0.45, L -0.67
C4: F -1.09, M -0.72, I -0.956, E -0.634, K -0.66, P -0.938, V -0.917, S -0.824, T -0.79, Y -0.426, H -0.956, R -0.792, L -0.8, Q -0.759, D -1.1, A -0.801, W -0.934, G -0.696
